Among the data in patent CN114395035A (JIANGSU MICKEE MEDICAL TECH CO LTD; INST OF MICROBIOLOGY OF …, dated 2022) are Kd values, retold here.

This test deals with SARS-CoV-2 Prototype RBD蛋白 (野生型新型冠状病毒刺突蛋白受体结合域段RBD蛋白) (SARS-CoV-2, UniProt P0DTC2 319-541). The experiment in a line: SPR (Biacore 8K).

B1: IMCAS-123抗体 (全抗IgG1) (antibody, V domains shown)
VH: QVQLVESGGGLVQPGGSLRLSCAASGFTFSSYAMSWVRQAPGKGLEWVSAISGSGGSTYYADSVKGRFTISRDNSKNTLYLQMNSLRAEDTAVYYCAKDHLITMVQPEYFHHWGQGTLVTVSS
VL: DIQMTQSPSSVSASVGDSVTITCRASQGISRWLAWYQQRPGKAPKLLIYAAGNLETGVPSRFSGSGSGTDFTLTISDLQAEDFATYYCQQADSFPLTFGGGTKVDIKR
notes: also called T1线抗体
The molecule B1 had an equilibrium dissociation constant (Kd) of 0.18 nM.

B2: IMCAS-364抗体 (全抗IgG1) (antibody, V domains shown)
VH: QVQLQESGGGVVQPGRSLRLSCAASGFTFSRYGMHWVRQAPGKGLEWVAVIWYDGSNKYYADSVKGRFTISRDNSKNTLYLQMNSLRADDTAVYYCAKQEGTYCSGGSCYSGLDYWGQGTLVTVSS
VL: not shown
notes: also called 金标抗体 (胶体金标记)
Molecule B2 returned a dissociation constant (Kd) of 1.04 nM.
